Assay results published in paper PMC4514675, “Novel Apo E-Derived ABCA1 Agonist Peptide (CS-6253) Promotes Reverse Cholesterol Transport and Induces Formation of preβ-1 HDL In Vitro” (PLoS ONE, 2015).
Several values for one entry are separate records, joined by “and”; a condition that tells them apart may be missing. Equal values may be shown once.

Columns and labels:
[1] = target: T1, ABCA1 (Homo sapiens, UniProt O95477); assay: ABCA1-mediated cholesterol efflux from BHK-ABCA1 cells after pre-incubation of acceptor in human plasma; format: cell-based; set-up: expressed in transfected cells; host or cells: BHK cells, stably transfected, induced with 10 nM mifepristone (gift of J. F. Oram)
Experimental: (§1) We investigated cholesterol efflux from BHK cells after adding lipid free CS-6253 to media cell culture or to human EDTA-plasma which had been stored at -80°C. BHK overexpressing human ABCA1 were labeled with 2 μCi/ml ^3H-free cholesterol (Perkin Elmer, Norwalk, Connecticut) for 24 h. Afterward, BHK-ABCA1 were stimulated with 10 nmol/l mifepristone for 18–20 h (13). Cells were incubated with various doses of acceptor in media for 4 h at 37°C. Alternatively, plasma samples were first pre-incubated for 5 min at 37°C in plasma at mole ratios (10:1 or 1:1 relative to plasma apo A-I). To obtain the HDL fraction, apoB lipoproteins were precipitated from plasma by polyethylene glycol (PEG). Also, increased doses of lipid free CS-6253 and nHDL-CS-6253 were tested for cholesterol efflux after incubation with human plasma for optimum 1h at 37°C. ^3[H]-cholesterol loaded BHK cells expressing ABCA1 were incubated with 2.8% apoB depleted plasma samples [19] for 4 h for the efflux assays. Lipid free apo A-I and nHDL-apo A-I were used as control, nHDL-CS-6253 and nHDL-apo A-I were generated after incubation with BHK cells expressing ABCA1. Direct comparisons with peptide ATI-5261 are provided using identical protocols (12).
Fig 7 Dose dependent effects of pre-incubation of plasma with lipid free CS-6253, or nHDL-CS-6253 on ABCA1 cholesterol efflux. A. Increased doses of lipid free CS-6253 or apo A-I were added to normolipidemic plasma and incubated for 1h at 37°C. A volume of 2.8% of HDL fractions isolated by PEG was used for the measurements of cholesterol efflux from BHK cells expressing ABCA1 and mock cells. […] B. nHDL-CS-6253 and nHDL-apo A-I were generated as indicated above. nHDL particles were incubated in plasma for 1h at 37°C, and specific HDL fractions isolated by PEG were subjected to cholesterol efflux in ^3[H]-radiolabelled BHK cells. […] C. Mobilization of cholesterol efflux of increasing concentrations of peptide: plasma apo A-I molar ratios: (1:0) (closed circles), (1:10) (upright closed triangles), and (1:1) (closed squares). (C inset). The double reciprocal-plot was used to calculate the apparent appKm of the efflux activity in peptide: plasma with indicated ratios. Kinetics values are as follows, molar ratio of plasma apo A-I: CS-6253 (1:0); appKm (28±0.07 μM). Molar ratio of plasma apo A-I: CS-6253 (1:1); appKm (4.17±0.47 μM). Molar ratio of plasma apo A-I: CS-6253 (1:10); appKm (0.71±0.46 μM). D. Lipid free CS-6253 was incubated with normolipidemic plasma, using peptide: apo A-I mole ratio of (1:1) for 5 min at 37°C versus plasma alone. Isolated HDL fractions by PEG were separated by 2D-PAGGE and HDL subpopulations were detected by apo A-I Western blot. Molecular size markers are shown. In all experiments, efflux of ^3[H]cholesterol is shown as means ± SD of triplicate experiments.

[2] = tested on: BHK-mock cells; assay: Cholesterol efflux from BHK-mock cells to acceptor in human plasma; format: cell-based, hamster
Experimental: as §1, with “Direct comparisons with peptide ATI-5261 are provided using identical protocols (12).” left out
Fig 7 Dose dependent effects of pre-incubation of plasma with lipid free CS-6253, or nHDL-CS-6253 on ABCA1 cholesterol efflux. […] Isolated HDL fractions by PEG were separated by 2D-PAGGE and HDL subpopulations were detected by apo A-I Western blot. […]

[3] = target: T1, ABCA1; assay: ABCA1-mediated cholesterol efflux from BHK-ABCA1 cells, acceptor in media; format: cell-based; set-up: expressed in transfected cells; host or cells: BHK cells, stably transfected, induced with 10 nM mifepristone (gift of J. F. Oram); conditions: BHK-ABCA1 induced with mifepristone, 4 h, 37°C, mean ± SD
From the text: BHK cells stably transfected with an ABCA1 or ABCG1 expression vector that is mifepristone inducible and cells transfected with the same vector lacking the ABCA1 cDNA insert (mutant or mock-transfected) were generously provided by the late Dr. John F. Oram from the Department of Medicine, University of Washington, and were characterized and cultured as previously described. […] Mouse-derived peritoneal macrophages J774 were purchased from American Tissue Culture Collection (ATCC TIB-67, Cederlane, Burlington, Canada). For induction of ABCA1, BHK cells were incubated for 18–20 h with 10 nM mifepristone. J774 macrophages were stimulated with 0.3 mM Cpt-cAMP 8-(4-Chlorophenylthio)-cyclic adenosine monophosphate (Sigma). All BHK and J774 macrophages cells were respectively grown and maintained in DMEM and RPMI containing 10% fetal serum until experimental treatment. Studies were carried out on standard 24-well plates (150,000 cells/well) unless stated otherwise
We investigated cholesterol efflux from BHK cells after adding lipid free CS-6253 to media cell culture or to human EDTA-plasma which had been stored at -80°C. BHK overexpressing human ABCA1 were labeled with 2 μCi/ml ^3H-free cholesterol (Perkin Elmer, Norwalk, Connecticut) for 24 h. Afterward, BHK-ABCA1 were stimulated with 10 nmol/l mifepristone for 18–20 h (13). Cells were incubated with various doses of acceptor in media for 4 h at 37°C. Alternatively, plasma samples were first pre-incubated for 5 min at 37°C in plasma at mole ratios (10:1 or 1:1 relative to plasma apo A-I). To obtain the HDL fraction, apoB lipoproteins were precipitated from plasma by polyethylene glycol (PEG). […]
Fig 2 Effect of CS-6253 treatment on cholesterol efflux. […] Cholesterol efflux from either ABCA1 cells or control cells to apo A-I (closed circles), and CS-6253 (closed triangles) was determined at the indicated time points. […] ABCA1 was detected from THP-1 foam cells lysis at 4°C with lysis buffer containing 0.5% n-dodecylmaltoside in the presence of a protease inhibitor mixture followed by low speed centrifugation to remove cell debris. Protein concentration was determined by standard assay (Bio-Rad). […] After electrophoresis, ABCA1 was detected by an anti-ABCA1 antibody. […] E. Quantification of FC and CE in foam cells after interaction with CS-6253 and apoA-I. After a period of 4h cholesterol efflux, THP-1 foam cell lipids were extracted with hexane: isopropanol (3v/2v) as under ‘‘Material and Methods’. 3[H]-FC and 3[H]-CE were separated by TLC and located by exposure to iodine vapor, and were scraped off into liquid scintillating vials and assayed for radioactivity. […]

T1 sequence (O95477 whole entry): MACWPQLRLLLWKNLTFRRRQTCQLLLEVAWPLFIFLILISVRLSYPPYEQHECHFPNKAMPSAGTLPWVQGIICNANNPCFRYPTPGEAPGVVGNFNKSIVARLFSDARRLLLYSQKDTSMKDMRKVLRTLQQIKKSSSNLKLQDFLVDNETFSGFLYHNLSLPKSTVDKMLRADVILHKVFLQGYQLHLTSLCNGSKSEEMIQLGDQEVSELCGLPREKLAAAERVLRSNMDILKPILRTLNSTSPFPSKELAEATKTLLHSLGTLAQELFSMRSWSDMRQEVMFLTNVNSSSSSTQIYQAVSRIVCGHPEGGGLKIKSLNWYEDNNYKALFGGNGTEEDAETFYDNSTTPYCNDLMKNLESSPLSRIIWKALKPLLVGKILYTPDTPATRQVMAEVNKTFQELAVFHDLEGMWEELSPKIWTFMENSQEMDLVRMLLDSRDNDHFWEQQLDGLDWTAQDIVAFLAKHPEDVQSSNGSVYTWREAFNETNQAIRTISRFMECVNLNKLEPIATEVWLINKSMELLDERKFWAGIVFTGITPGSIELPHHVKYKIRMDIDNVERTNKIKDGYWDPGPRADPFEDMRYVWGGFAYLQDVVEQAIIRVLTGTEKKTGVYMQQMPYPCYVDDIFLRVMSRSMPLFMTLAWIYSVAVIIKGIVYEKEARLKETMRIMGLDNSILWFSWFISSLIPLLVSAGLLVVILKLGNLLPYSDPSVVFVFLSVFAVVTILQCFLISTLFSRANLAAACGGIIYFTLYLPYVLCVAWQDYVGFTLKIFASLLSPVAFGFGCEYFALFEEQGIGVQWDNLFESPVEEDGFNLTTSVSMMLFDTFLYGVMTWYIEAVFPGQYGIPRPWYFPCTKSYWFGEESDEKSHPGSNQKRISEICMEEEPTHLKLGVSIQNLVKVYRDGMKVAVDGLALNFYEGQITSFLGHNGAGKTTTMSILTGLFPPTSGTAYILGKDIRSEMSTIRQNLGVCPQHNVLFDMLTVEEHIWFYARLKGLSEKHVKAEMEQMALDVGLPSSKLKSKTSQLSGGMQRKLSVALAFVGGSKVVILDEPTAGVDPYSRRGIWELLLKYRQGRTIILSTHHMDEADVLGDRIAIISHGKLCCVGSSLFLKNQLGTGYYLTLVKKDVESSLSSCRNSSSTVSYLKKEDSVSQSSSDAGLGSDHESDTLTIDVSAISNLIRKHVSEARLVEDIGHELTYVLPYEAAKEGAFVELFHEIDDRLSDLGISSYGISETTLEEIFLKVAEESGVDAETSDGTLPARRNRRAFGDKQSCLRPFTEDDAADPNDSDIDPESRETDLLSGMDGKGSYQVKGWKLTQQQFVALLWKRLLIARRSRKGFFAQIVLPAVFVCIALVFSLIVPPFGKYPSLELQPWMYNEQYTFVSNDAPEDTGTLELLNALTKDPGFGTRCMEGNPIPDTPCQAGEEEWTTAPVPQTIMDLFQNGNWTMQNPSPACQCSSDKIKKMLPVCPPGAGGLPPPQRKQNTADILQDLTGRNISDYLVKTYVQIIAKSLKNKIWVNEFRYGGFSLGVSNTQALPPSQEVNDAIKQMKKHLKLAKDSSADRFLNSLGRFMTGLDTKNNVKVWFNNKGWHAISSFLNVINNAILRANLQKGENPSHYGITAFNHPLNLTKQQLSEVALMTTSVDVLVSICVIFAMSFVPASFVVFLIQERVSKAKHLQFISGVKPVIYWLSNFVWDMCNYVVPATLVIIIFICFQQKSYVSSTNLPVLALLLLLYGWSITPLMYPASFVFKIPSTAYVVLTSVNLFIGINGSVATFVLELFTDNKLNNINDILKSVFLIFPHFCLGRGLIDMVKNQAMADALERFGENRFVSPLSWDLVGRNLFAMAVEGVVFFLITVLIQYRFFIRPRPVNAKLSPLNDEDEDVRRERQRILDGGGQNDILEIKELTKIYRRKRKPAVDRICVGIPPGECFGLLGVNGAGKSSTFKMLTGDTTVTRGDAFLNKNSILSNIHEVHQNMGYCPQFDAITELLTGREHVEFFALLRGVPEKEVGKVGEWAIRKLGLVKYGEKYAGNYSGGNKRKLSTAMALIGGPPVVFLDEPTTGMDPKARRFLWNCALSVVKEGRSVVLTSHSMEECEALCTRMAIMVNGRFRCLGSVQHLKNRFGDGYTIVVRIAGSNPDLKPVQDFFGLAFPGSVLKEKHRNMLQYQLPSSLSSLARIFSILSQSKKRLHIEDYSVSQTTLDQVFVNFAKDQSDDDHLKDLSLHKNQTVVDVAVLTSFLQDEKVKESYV

For apolipoprotein A-I [apo A-I], the Km ([1]; acceptor in human plasma 1 h 37°C, 2.8% HDL fraction, 4 h, BHK-ABCA1, Fig 7A/7B, read-out: Km, cholesterol efflux, plasma (Fig 7)) was 0.03 ± 0.008 µM, the “Vmax, cholesterol efflux, plasma (Fig 7)” value ([1]; acceptor in human plasma 1 h 37°C, 2.8% HDL fraction, BHK-ABCA1, Fig 7A/7B) was 9.26±0.29 % efflux/4h and the “Vmax, cholesterol efflux, plasma (Table 1)” value ([1]; efflux condition plasma, 4 h, BHK-ABCA1, Table 1, mean ± SD) was 8.81±0.33 % efflux/4h. For the same substance, the Km ([1]; efflux condition plasma, 4 h, BHK-ABCA1, Table 1, mean ± SD, read-out: Km, cholesterol efflux, plasma (Table 1)) was 0.02 ± 0.0091 µM, the “appKm, HDL specific cholesterol efflux, plasma apo A-I alone” value ([1]; no peptide, 5 min, 37°C, efflux 4 h, Lineweaver-Burk, listed as plasma apo A-I) was 28 ± 0.072 µM and 28 ± 0.07 µM and the “maximum efflux capacity, BHK-mock” value ([2]; acceptor in human plasma) was “similar”. For the same substance, the “Vmax, cholesterol efflux, BHK-mock” value ([2]; acceptor in human plasma 1 h, 37°C) was 0.30±0.15 % efflux/6h, the Km [3] was 0.15 ± 0.02 µM and the “Km, cholesterol efflux” value [3] was 4.53 ± 0.67 µg/mL.
